Laboratory results: patent publication US9657104B2, “Anti-c-Met/anti-EGFR bispecific antibodies” (Samsung Electronics Co., Ltd., priority 2013, dated 2017)

System: c-Met and EGFR
Assay: Co-localization of c-Met and EGFR by confocal microscopy
Format: cell-based
Conditions: 1 μg/mL, 37° C., 4 hours; MKN45 and EBC1 cell lines; FIGS. 7 and 8
Procedure: The MKN45 cell line and the EBC1 cell line were prepared in amounts of 4×10^4 cell/well, respectively, to which L3-1Y-IgG2 prepared in Reference Example 1, anti-EGFR scFv prepared in Reference Example 2, and the anti-c-Met/anti-EGFR bispecific antibody ME03S prepared in Example 1 were each added individually or in combination to result in the concentration of 1 μg/mL per well (in case of the combination treatment, to result in 1 μg/mL each) and treated at 37° C. for 4 hours. The cells were treated with 4% (v/v) formaldehyde for 15 min to immobilize them on a plate, and washed three times with PBS. Thereafter, the cells were treated with a blocking buffer (0.5% triton x-100 and 5% donkey serum) at a room temperature for one hour and then treated with a 1:100 dilution of the first antibodies (c-Met primary antibody; #FAB3582A, R&D systems, EGFR primary antibody; #5616, Cell signaling) against c-Met and EGFR, respectively in amounts of 100 μA at 4° C. for 15 hours. After the cells were washed three time with PBS, they were treated with a 1:2000 dilution of the secondary antibody (#A21433, Invitrogen) in an amount of 100 μA at a room temperature for 1 hour and washed three times with PBS to prepare a plate with a mounting medium (#H-1200, Vector).

B1: anti-EGFR scFv: scFv with heavy chain variable region SEQ ID NO: 109, (GGGGS)3 linker, light chain variable region SEQ ID NO: 111 (antibody, V domains shown)
VH: QVQLVQSGAEVKKPGSSVKVSCKASGFTFTDYKIHWVRQAPGQGLEWMGYFNPNSGYSTYAQKFQGRVTITADKSTSTAYMELSSLRSEDTAVYYCARLSPGGYYVMDAWGQGTTVTVSS
VL: DIQMTQSPSSLSASVGDRVTITCRASQGINNYLNWYQQKPGKAPKRLIYNTNNLQTGVPSRFSGSGSGTEFTLTISSLQPEDFATYYCLQHNSFPTFGQGTKLEIKRT
modifications: (GGGGS)3 linker; Synthetic (heavy-chain variable region of anti-EGFR antibody); Synthetic (light-chain variable region of anti-EGFR antibody)
- location of c-Met and EGFR in the cells: EGFR still locates on cell membranes
